Reference: patent US20260210939A1, “MODIFIED OLFACTORY RECEPTORS” (GIVAUDAN SA, priority 2022, published 2026)

Molecular target: T1, OR7D4 (Homo sapiens, UniProt Q8NG98, D296E/E302K/G299D)
T1 construct: Improved functional expression of modified OR-genes containing the truncated, optimized C-terminus; expressed in transfected cells
T1 sequence (Q8NG98 with tags, fused parts or gaps D296E/G299D/E302K): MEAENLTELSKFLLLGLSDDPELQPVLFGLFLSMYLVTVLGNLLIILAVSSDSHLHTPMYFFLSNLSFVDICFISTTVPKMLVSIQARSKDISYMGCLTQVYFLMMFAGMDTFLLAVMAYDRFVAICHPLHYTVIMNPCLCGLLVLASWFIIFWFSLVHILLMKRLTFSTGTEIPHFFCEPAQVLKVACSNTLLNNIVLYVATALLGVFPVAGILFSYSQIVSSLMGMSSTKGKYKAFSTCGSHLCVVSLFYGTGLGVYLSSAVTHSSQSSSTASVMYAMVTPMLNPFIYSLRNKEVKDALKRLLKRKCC
Experiment: CRE-luciferase assay, HEK cells expressing OR7D4 (wild-type / modified C-terminus)
Format: cell-based
Settings: for EC2 (concentration for 2-fold luciferase induction) / EC2 Fold-improvement vs. wild-type / Fold induction luciferase: OR7D4 variant; for EC2 (concentration for 2-fold luciferase induction) / EC2 Fold-improvement vs. wild-type: Androstenone
Description: Random permutations of the general C-terminal sequence RN[KR][EDQ][VMIL][KR]KA[LIV][KRH][KR][LI][LIF][KRG][KR][KR]CC (SEQ ID NO: 822) linked to OR7D4 were generated based on degenerate oligonucleotides for the C-terminal domain. For this experiment, the MfeI/XhoI fragment from pcDNA3.1(+)-mmLucy-FLAG-rho-OR7D4 containing the CMV promoter and the OR coding sequence was used to replace the EcoRI/SalI fragment of pRDVCCB-CMV-dCas9-VPH-2A-Blast (Cellecta, Inc., Mountain View, USA). Complementary degenerate oligonucleotides were then used to replace the coding region of the C-terminal domain of […] (between Bsu36I and NotI). Random clones were selected, sequenced and tested for a correct open reading frame. A total of 55 clones were obtained with the correct open reading frame of […] and a permutation of the general sequence RN[KR][EDQ][VMIL][KR]KA[LIV][KRH][KR][LI][LIF][KRG][KR][KR]CC (SEQ ID NO: 822) as the C-terminal domain. All the different clones were compared to the wild-type sequence by the functional assay in HEK cells with the ligand Androstenone tested in a dose-response test.

Compound	EC2 (concentration for 2-fold luciferase induction)	EC2 Fold-improvement vs. wild-type	also measured
C[C@]12CCC(=O)C[C@@H]1CC[C@@H]1[C@@H]2CC[C@]2(C)C=CC[C@@H]12 [Androstenone, reference compound]			Comments on efficacy: 3-fold lower; Fold-improvement potency (changed C-term. vs wild-type): 66; Fold-improvement threshold (changed C-term. vs wild-type): 265
C[C@]12CC[C@@H](O)C[C@@H]1CC[C@@H]1[C@@H]2CC[C@]2(C)C=CC[C@@H]12 [androstenol, reference compound]			activation of OR7D4 variants (wild-type vs SEQ ID NO: 86): can only activate the modified version of the receptor
SEQ ID NO: 254 (RNREMRKALHRLLGKKCC; source 1..18: note = C-terminal domain sequence)	0.011 µM	156.27	
SEQ ID NO: 255 (RNREVKKAIHKLIGRKCC; source 1..18: note = C-terminal domain sequence)	0.010 µM	164.23	
SEQ ID NO: 256 (RNREVRKAVHRLFKRKCC; source 1..18: note = C-terminal domain sequence)	0.004 µM	385.42	
SEQ ID NO: 257 (RNKEMKKAIHKLFGKKCC; source 1..18: note = C-terminal domain sequence)	0.010 µM	172.96	
SEQ ID NO: 258 (RNRDVKKAVHKLFRRKCC; source 1..18: note = C-terminal domain sequence)	0.011 µM	152.59	
SEQ ID NO: 259 (RNRDMKKAVHKLFGKRCC; source 1..18: note = C-terminal domain sequence)	0.020 µM	84.30	
SEQ ID NO: 260 (RNKELRKALHKLLGRKCC; source 1..18: note = C-terminal domain sequence)	0.043 µM	39.74	
SEQ ID NO: 261 (RNRDVRKALRRILRRRCC; source 1..18: note = C-terminal domain sequence)	0.004 µM	427.69	
SEQ ID NO: 262 (RNKDVRKAVRKLIRRRCC; source 1..18: note = C-terminal domain sequence)	0.010 µM	165.32	
SEQ ID NO: 263 (RNRDVRKAVRRLFRKRCC; source 1..18: note = C-terminal domain sequence)	0.006 µM	304.87	
SEQ ID NO: 264 (RNKDIKKAVKKLIKKKCC; source 1..18: note = C-terminal domain sequence)	0.048 µM	36.01	Fold induction luciferase (0.1 μM Androstenone): 3.79; Fold induction luciferase (1 μM Androstenone): 23.26
SEQ ID NO: 265 (RNRELRKAVRRLFKRRCC; source 1..18: note = C-terminal domain sequence)	0.022 µM	78.45	
SEQ ID NO: 266 (RNKELRKAVRKIIKKKCC; source 1..18: note = C-terminal domain sequence)	0.041 µM	41.85	
SEQ ID NO: 267 (RNRDVKKAVRRLFRRKCC; source 1..18: note = C-terminal domain sequence)	0.006 µM	266.97	
SEQ ID NO: 268 (RNREVRKALRRIIRKRCC; source 1..18: note = C-terminal domain sequence)	0.003 µM	545.04	
SEQ ID NO: 269 (RNKDIRKAVKKIFRRKCC; source 1..18: note = C-terminal domain sequence)	0.026 µM	65.26	
